Source: patent US20240181058A1, “[…] ANTIGEN RECEPTOR TARGETING ONCOLYTIC VIRUS-DERIVED PROTEIN, […], AND USES OF BOTH” (priority 2021, published 2024)

B1: Ab18 (protein)
scFv: QVQLVESGGGLVQPGKSLRLSCAASGFTFSTYGMTWVRQAPGKGLEWVSGISGGGSSTNYADSVKGRFIISRDNSNNTLYLQMNSLRAEDTAVYYCARWGVMLSFDYWGQGTPVTVSSGLGGLGGGGSGGGGSGGSSGVGSDIQMTQSPSTLPASVGDRVTITCRASYSVSPWLAWYQQKPGKAPKLLIYKASTLESGVPSRFSGSGSGTEFTLTISSLQPDDFATYYCQQFNSYMMYTFGQGTKLEIK
modifications: amino acid sequence for anti-UTTA scFv (Ab18)
B2: Ab13 (protein)
scFv: QMQLVESGAEVKKTGSSVKVSCKASGDTLTYRFLHWVRQAPGQAPEWMGWITPFNDNTNYAQKFQDRVTITRDRSMSTAYMELSSLRSEDTAVYYCATGGGNNYYGMEVWGQGTPITVSSGLGGLGGGGSGGGGSGGSSGVGSSYELTQPLSLSVSPGQTASITCSGDKLGDKFTSWYQQQPGQSPVLVIYQDAKRPSGIPERFSGSNSGSTATLTISGTQSMDEADYYCQAWDSSSVVFGGGTKLTVL
modifications: amino acid sequence for anti-UTTA scFv (Ab13)
B3: Ab19 (protein)
scFv: QVQLVESGAEVRRPGSSVKVSCKTSGVTFSGYVLSWVRQAPGHGLEWMGRIIPLIDVENYAREFQGRMKITADKSTNTVYMELNNLRSEDTAVYYCAKSVVRGLDYYYYGFDVWGQGTTVTVSSGLGGLGGGGSGGGGSGGSSGVGSSYELTQPPSLSVAPGKTARITCGGNNIGSKSVHWYQQKPGQAPRLVTYYDGNRPSGIPERFSGSNSGNTATLIISRVEAGDEADYYCQVWDSSSDQGVFGTGTKVTVL
modifications: amino acid sequence for anti-UTTA scFv (Ab19)
B4: Ab16 (protein)
scFv: QVQLQQSGPGLVKPSQTLSLTCAISGDSVSSNSAAWNWIRQSPSRGLEWLGRTYYRSKWYNDYAVSVKSRITINPDTSKNQFSLQLNSVTAVDTAVYYCAKSYAGPISYYYYGLDVWGQGTTVTVSSGLGGLGGGGSGGGGSGGSSGVGSQSALTQPASVSGSPGQSVTISCTGTSSDIGRYNLVSWYQQHPGKAPKLMIYGGSKRPSGVSNRFSGSNSDNTASLTISGLRAEDEADYYCSSYASSSTPYVFGTGTKVTVL
modifications: amino acid sequence for anti-UTTA scFv (Ab16)

The molecules below were run against protein A56 (Vaccinia virus, UniProt Q01218).

Molecule	Western blotting, binding affinity in a two-dimensional structure using PAGE	Western blot band on denatured protein
B1	linear multiple bands were identified	–
B2	binding did not occur	many weak bands with small sizes were observed or no band was observed
B3	a linear single band was identified	many weak bands with small sizes were observed or no band was observed
B4	linear multiple bands were identified	many weak bands with small sizes were observed or no band was observed
